Test results reported in PMC3948114.
Numbering of substitutions follows the chain as printed. In names and notes the source's numbering stands.

B1: FLAG-tagged 3DL1*001, P43629 M165A (protein)
chain: HMGGQDKPFLSAWPSAVVPRGGHVTLRCHYRHRFNNFMLYKEDRIHIPIFHGRIFQESFNMSPVTTAHAGNYTCRGSHPHSPTGWSAPSNPVVIMVTGNHRKPSLLAHPGPLVKSGERVILQCWSDIMFEHFFLHKEGISKDPSRLVGQIHDGVSKANFSIGPMALALAGTYRCYGSVTHTPYQLSAPSDPLDIVVTGPYEKPSLSAQPGPKVQAGESVTLSCSSRSSYDMYHLSREGGAHERRLPAVRKVNRTFQADFPLGPATHGGTYRCFGSFRHSPYEWSDPSDPLLVSVTGNPSSSWPSPTEPSSKSGNPRHLHILIGTSVVIILFILLLFFLLHLWCSNKKNAAVMDQEPAGNRTANSEDSDEQDPEEVTYAQLDHCVFTQRKITRPSQRPKTPPTDTILYTELPNAKPRSKVVSCP
B2: FLAG-tagged 3DL1*001, P43629 Y200F (protein)
chain: B1 chain with A165M, Y200F
B3: FLAG-tagged 3DL1*001, P43629 E282A (protein)
chain: B1 chain with A165M, E282A
B4: FLAG-tagged 3DL1*001, P43629 E282Q (protein)
chain: B1 chain with A165M, E282Q
B5: FLAG-tagged 3DL1*001, P43629 A167G (protein)
chain: B1 chain with A165M, A167G
B6: FLAG-tagged 3DL1*001, P43629 L166A (protein)
chain: B1 chain with A165M, L166A
B7: FLAG-tagged 3DL1*001, P43629 P199A (protein)
chain: B1 chain with A165M, P199A
B8: FLAG-tagged 3DL1*001, P43629 D230A (protein)
chain: B1 chain with A165M, D230A
B9: FLAG-tagged 3DL1*001, P43629 L166V (protein)
chain: B1 chain with A165M, L166V
B10: FLAG-tagged 3DL1*001, P43629 Y200A (protein)
chain: B1 chain with A165M, Y200A

These binders were tested against HLA-B*27:05-KF9 N8H tetramer (assay: tetramer staining of transfected HEK293 cells). Conditions: chain shown with the change; 0.2 μg tetramer; parent: est. 100; read off a plot.

| Binder | percent of parent |
| --- | --- |
| B1 | 61 % of ·001 |
| B2 | 81 % of ·001 |
| B3 | 48 % of ·001 |
| B4 | 89 % of ·001 |
| B5 | 130 % of ·001 |
| B6 | 45 % of ·001 |
| B7 | 21 % of ·001 |
| B8 | 66 % of ·001 |
| B9 | 58 % of ·001 |
| B10 | 15 % of ·001 |

The binders below were run against HLA-B*27:05-KF9 tetramer (assay: tetramer staining of transfected HEK293 cells). Conditions: chain shown with the change; 0.2 μg tetramer; parent: est. 100; read off a plot.

| Binder | percent of parent |
| --- | --- |
| B1 | 60 % of ·001 |
| B2 | 87 % of ·001 |
| B3 | 51 % of ·001 |
| B4 | 99 % of ·001 |
| B5 | 65 % of ·001 |
| B6 | 56 % of ·001 |
| B7 | 21 % of ·001 |
| B8 | 70 % of ·001 |
| B9 | 36 % of ·001 |
| B10 | 16 % of ·001 |
